Data from patent US20250032630A1, “B7H4 ANTIBODY-DRUG CONJUGATE AND USE THEREOF” (Duality Biologics (Suzhou) Co., Ltd., priority 2022, published 2025).

Experiments:
human B7H4 [1] = biological target: T1, human B7H4 (human, UniProt Q7Z7D3 25-282); assay: cell-based or functional assay
T1 sequence (looked up): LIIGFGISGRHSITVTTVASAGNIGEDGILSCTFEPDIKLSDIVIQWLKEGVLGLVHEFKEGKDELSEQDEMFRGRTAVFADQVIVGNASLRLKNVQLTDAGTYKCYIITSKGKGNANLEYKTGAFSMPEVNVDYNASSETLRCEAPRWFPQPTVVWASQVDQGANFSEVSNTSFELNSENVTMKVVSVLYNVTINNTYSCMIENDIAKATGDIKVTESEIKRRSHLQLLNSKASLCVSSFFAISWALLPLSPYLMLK

human PD-L2 (B7-DC) = biological target: T2, human PD-L2 (B7-DC) (human, UniProt Q9BQ51 20-273); assay: flow cytometry on HEK293T cells stably expressing the human protein, one concentration
T2 construct: whole, on cells; also called CD273
T2 sequence (looked up): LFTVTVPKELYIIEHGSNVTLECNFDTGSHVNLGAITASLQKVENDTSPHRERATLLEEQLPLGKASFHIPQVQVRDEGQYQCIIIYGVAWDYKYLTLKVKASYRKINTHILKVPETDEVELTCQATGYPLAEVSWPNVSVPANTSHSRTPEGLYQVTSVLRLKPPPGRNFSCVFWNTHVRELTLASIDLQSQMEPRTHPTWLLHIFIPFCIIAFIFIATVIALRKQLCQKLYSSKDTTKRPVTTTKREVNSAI

human PD-L1 (B7-H1) = biological target: T3, human PD-L1 (B7-H1) (human, UniProt Q9NZQ7 19-290); assay: as above
T3 construct: whole, on cells; also called CD274

human CD80 (B7-1) = biological target: T4, human CD80 (B7-1) (human, UniProt P33681 35-288); assay: as above
T4 construct: whole, on cells
T4 sequence (looked up): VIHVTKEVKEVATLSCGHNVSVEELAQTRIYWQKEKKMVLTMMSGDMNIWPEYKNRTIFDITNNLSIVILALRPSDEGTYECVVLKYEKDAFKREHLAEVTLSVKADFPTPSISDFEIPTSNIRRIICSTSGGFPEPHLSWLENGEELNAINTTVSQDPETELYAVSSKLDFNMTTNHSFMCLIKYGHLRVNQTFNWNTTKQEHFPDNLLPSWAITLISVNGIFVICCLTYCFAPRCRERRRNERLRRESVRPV

human ICOSLG (B7-H2) = biological target: T5, human ICOSLG (B7-H2) (human, UniProt O75144 19-302); assay: as above
T5 construct: whole, on cells
T5 sequence (looked up): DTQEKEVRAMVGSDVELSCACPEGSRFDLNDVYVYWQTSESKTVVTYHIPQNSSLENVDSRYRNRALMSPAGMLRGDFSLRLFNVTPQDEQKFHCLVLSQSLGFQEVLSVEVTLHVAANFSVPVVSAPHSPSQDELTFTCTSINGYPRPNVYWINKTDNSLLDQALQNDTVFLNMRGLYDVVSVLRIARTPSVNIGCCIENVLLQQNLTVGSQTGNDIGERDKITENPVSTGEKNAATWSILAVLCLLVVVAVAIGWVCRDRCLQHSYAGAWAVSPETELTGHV

human B7H4 [2] = biological target: T1, human B7H4; assay: cell-based or functional assay; remark: listed apart in the source

T3 sequence (Q9NZQ7 19-290): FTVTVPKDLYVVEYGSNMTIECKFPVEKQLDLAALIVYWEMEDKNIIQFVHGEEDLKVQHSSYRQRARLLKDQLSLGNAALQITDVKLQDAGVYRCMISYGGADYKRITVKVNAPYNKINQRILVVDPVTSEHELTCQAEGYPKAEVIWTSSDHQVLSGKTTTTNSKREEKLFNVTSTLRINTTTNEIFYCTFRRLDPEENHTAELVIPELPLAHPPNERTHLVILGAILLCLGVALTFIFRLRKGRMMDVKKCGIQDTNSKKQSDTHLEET

B1: antibody-drug conjugate DB1001-X2 (antibody, DAR 5.4, V domains shown)
VH: QVQLVESGGGVVQPGRSLRLSCAASGFTFRSFGMHWVRQAPGKGLEWVAVISYDASNEYYADSVKGRFIISRDNSKDTLYLQMNSLRAGDTAVYYCAKGGALRWYFAYWGQGTLVTVSS
VL: EIVMTQSPATLSVSPGERATLSCRASQSISSNLGWYQQKPGQAPRLLIYGASTRATGIPARFSGSGSGTEFTLTISSLQSEDFAVYYCQQYRSWPPLTFGGGTKVEIKR
modifications: linker-cytotoxin X2 (payload P-III-30) coupled after TCEP reduction of the antibody; drug-to-antibody ratio (DAR) of 5.4; conjugation residues not stated
notes: also called anti-B7H4 ADC DB1001-X2
For B1, the “IC50 (nM), proliferation inhibition of MX-1 cells with high expression of B7H4 (3D culture, CTG)” value (human B7H4 [1]) was 52.4 nM, the “IC50 (nM), proliferation inhibition of RL95-2 cells with low expression of B7H4 (3D culture, CTG)” value (human B7H4 [1]) was 69.4 nM and the binding result (human PD-L2 (B7-DC)) was “no binding (tested: 100 nM or 300 nM)”. B1: no binding (tested: 100 nM or 300 nM) (human PD-L1 (B7-H1)); no binding (tested: 100 nM or 300 nM) (human CD80 (B7-1)); no binding (tested: 100 nM or 300 nM) (human ICOSLG (B7-H2)). The “Fold over blank control, endocytosis by MDA-MB-468 cells” value (human B7H4 [2]) was 2.4 fold.
